Laboratory results published in article PMC3648463, “Common Interactions between S100A4 and S100A9 Defined by a Novel Chemical Probe” (PLoS ONE, 2013).

Tests used:
[1] = biological target: the molecule itself; assay: SPR; S100A1, A4, A7, A9 and A13 (~1.3 µg/mL) injected (2 min at 30 µL/min) over immobilised S100A4 and S100A9 (~2.5 kRU); 1 mM Ca++ and 20 µM Zn++; responses at late association phase
recombinant human S100A9 = biological target: T1, recombinant human S100A9 (human, UniProt P06702 1-114); assay: as above; conditions: both partners purified
T1 construct: S100A9, human, recombinant; No oligomer size was measured here; also called S100A9 homodimer; source: produced in E. coli at Active Biotech
T1 sequence (looked up): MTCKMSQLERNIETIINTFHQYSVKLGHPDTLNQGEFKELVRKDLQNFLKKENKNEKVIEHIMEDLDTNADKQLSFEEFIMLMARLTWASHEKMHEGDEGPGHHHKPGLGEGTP

B1: recombinant human S100A4 (natural protein)
chain: not shown
notes: S100A4, human, recombinant (R&D Systems); No catalogue number, limits or tags are stated; also called S100A4 homodimer; metastasin; source: bought: R&D Systems
binding result [1]: binds
binding result (recombinant human S100A9): binds
